Assay: label from the status in PepcDB records
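Further: failed if final PepcDB status was selected cloned or expressed and not failed if soluble or beyond.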

Sequence | protein production
MPPLGRPCHLAAMDSTDGPLDLIAERAEAAWSRGDRHRAMTLARLGLGQDDGHPRLLAVLGAFEQAEGRSAAAAGLFRRAMARCGDDPLMLHNLGVALRGAGLIDAAAAAWEGVLRGCPQRFATLFNLARLRDDQGRGEEALALYRRACLADPAASDAAYNLGNLLARRGALAQAAEVLGKAASVTPHDARIQTNLGIVLRRLGDAAGALACQRRAVALDPDLADAQWNLANLLLALDDYDEGFARYEWRKRRAPWRLVDPPLAEWRGEDLAGRRLLVGLEQGAGDMIQAARFLPVLAGRGARVIVEAPDALAGLLATVDGVESVVAPGAWAAARATCHIRAFSLPYRLGLRFADLAATAGPYLRVPPRTPTPPALPPGGQGPCVGLCWSGNPDFTENAVRAAPLAAFAPLTAVEGLTFFSLQKGPAVAELAASGLPVIDLDPWLVDYAATAAAMARLDMVVTTDTSVAHLAGALGRPCLLLLAAHCDWRWGIGRETSPWYPSLRLLRQERLGDWRAPVARAAALLAGLRRGTDTRGPEST | failed
MPPLRQTKTWVDRNGSAHVELSPTVPPQTPKRHMRIQSPMEISWSEAVREGGEHSARRCGDMAVSALAKPNPIIDDDPEGNPDVCMYTWIVECPGATAVLLWINGVFDHERIEESEMTRLEGSDLWILSLRMPSDWRASYTVNAWSGDGVAPWREAGDRMHIRKAAMSGGRPDSRAMGHIMDSSLVEGPDALPDCWVAASTSVKVVEETVAGEHFWFYEAPVKAPLLVLFDGQHWNNSMNLPAQVDAAIAIGLLPPVSLLMIDSVNTERRWDSVGVPGGQVDVLIDALLPHVRETYNVSARGEDTIVTGASFGGLASLWALALSDGEVGHAIAQSPSLWRFNVADALSAAEQWSSIHLQAGKYEGEMLRLSHQLAEDLSGDIREVRVRGVHGGHDWAWWRVHMLTELTRLLKTL | failed
MPPMHELTIEGLGPCEVEEGTRLVRAIEDCGAAVGHRCGGQSQCTTCRVEFAAGEPPVMTEAEYDKLTDIGRLGEMRLACQIVVDRDMTLTPLMTVEDQGWDDAGPEPALMVEPDAEWFSIETLEQR | failed
MPPRRRPHAGLTLPRILILNLLKALATISSLTMLSRITGLVREILIARAFGASDMTDAFNVAFRIPNLLRRIFAEGAFSQAFVPILNEYHGKRGHDETMSLVDAVATVMTWVLAAVSLLGVIGAPIVMTVVATGFRGDSETYNAAVFMTRVMFPYIGLISMVALASGILNTWRNFAVPAFTPVLLNLCLIVAALFVGPHMSQPIYAQAWGVLVGGVLQLVIQVPAMRKLGVMPRVSLNLRAAWANPGVRRVITQMLPALLAVSVAQISLIINTNIASRLGAGAVSYITYADRLMEFPTALLGVALGTILLPSLSRASAEDNREEYSGLLDWGLRLTFLLALPCAAGLMLFGTPITSVLFHYGRFDAHAVEMTQQALTTYGVGLLALILIKILTPGFYARQDIRTPVKIAILVLIITQASNYVFVPMLQHAGLPLSISFGATVNALLLFYGLRRRGYYHPAPGWGLFLLRLVAAMLILSGMLLWFARNFDWIALGATPGLRIALMGACLVLAATVYFGTLWLMGLRYSSFRRRAG | failed
MPQAKKRTSTKRKGNKKTNKKKQNETPLRYIFSIIVVILIILGAFQLGIIGRMIDSFFNYLFGMSRYLTYILVLIATIFITYSKQIPRTRRSIGAIVLQLALLFIAQLYFHFSHNITSQREPVLSFVYKAYEQTHFPNFGGGLIGFYLLKLFIPLISIVGVIIITILLLASSFILLLNLRHRDVTKSLFDNLKSSSNHASESIKQKREQNKIKKEEKAQLKEAKIERKKQKKSRQNNNVIKDVSDFPEISQSDDIPIYGHNEQEDKRPNTANQRQKRVLDNEQFQQSLPSTKNQSINNNQPSTTAENNQQQSQAEGSISEAGEEANIEYTVPPLSLLKQPTKQKTTSKAEVQRKGQVLESTLKNFGVNAKVTQIKIGPAVTQYEIQPAQGVKVSKIVNLHNDIALALAAKDVRIEAPIPGRSAVGIEVPNDKISLVTLKEVLEDKFPSKYKLEVGIGRDISGDPISIQLNEMPHLLVAGSTGSGKSVCINGIITSILLNTKPHEVKLMLIDPKMVELNVYNGIPHLLIPVVTNPHKASQALEKIVSEMERRYDLFQHSSTRNIEGYNQYIRKQNEELDEKQPELPYIVVIVDELADLMMVAGKEVENAIQRITQMARAAGIHLIVATQRPSVDVITGIIKNNIPSRIAFAVSSQTDSRTIIGAGGAEKLLGKGDMLYVGNGESTTTRIQGAFLSDQEVQDVVNYVVEQQKANYVKEMEPDAPVDKSEMKSEDALYDEAYLFVIEKQKASTSLLQRQFRIGYNRASRLMDDLERNQVIGPQKGSKPRQILVDLENDEV | failed
MPQDPTERRVVVTGPPRRARRAFDYYRPRTEIDEQTTLGHTYVRSLMRSQLRAGLAVFAVLVLLVGPLPLVFAAIPDARRLTWAVLGFCLYAPLVLLARWYVRRAERNERDFVRLVEDR | failed
MPQFASKAEEKNYYERQASLAEFLTWYHQQELPEYEKPSLTVDMVLLCYNKEADQLKVLLIQRKGHPFRNSWALPGGFVNRNESTEDSVLRETKEETGVVISQENIEQLHSFSRPDRDPRGWVVTVSYLAFIGEEPLIAGDDAKEVHWFNLERHGQHITLSHEDVEITLDLKTAASLGKDTLAFDHSEIIIKAFNRVVDKMEHEPQVLQVLGKDFTITEARKVFAKFLGVDYRSIDHSNFKKAMTQYFEELGERPVGIGRPSKIYQLKTTTGF | not failed
MPQHDKSRLVRIDTGPMINPVAGKPSRPIAGDASFRTVTAFEGGQGKVESGVWESTSGSFQSNTTGYIEYCHIIEGEARLVDPDGTVHAVKAGDAFIMPEGYTGRWEVDRHVKKIYFVTHLA | not failed
MPQPKKDKPDTPLRSDAQRNRERILAVATEELTHCANAPLSAIAKKAGVGQGTFYRNFPNREALVLEIYRYGMQQVAEAAPEMLATGEPDLALRQWMDRLAEFAMTKAGLADAIRLVTSAPGAPEKPRPTPLEDAAELLLRANHEAGTIRPGVTGDDFFLVLGGLWLIDPGENWQPRVTRFLDLVMDGLRAGAPGR | not failed
MPQSSRYSDEHVEQLLSEMVNVLEKHHAPTDLALMVLGNMVTNLINTSIAPAQRQILARSFAEALQASIKKADKAHLEHHHHHH | failed
MPQVALFGAVGAIGQSIARTLRSQGQPYRVVGRSQSSLLKAYGADPLAEPVTWDPDQPASVEAAAAGIDTLIYLVGVDYWRFELHPQLMRQTLDGAIAAGVRRILLIGTVYPYGMARSNPVAEQHPRQPNSFKGRMRKAQEDLLWKAHADGKIQATVLRLPDFYGPGVDKSLLHGAFQAAVQGGTANLVGPLDRPHEFVFVPDVGPVVCRLIQQPEAFGKTWHLGGAGVTSQRELLELIRQHGGARFKQRVIGKPLLRLLGLFDPLLREMVEMHYLISSPLILDDSALQALIGPIAKTSYTEGVRQTLAASAGAPQNVKR | failed
MPRALPRLPRPLLAVLSLSLTLGIAQADTAPLFSADGYRTTHYRSPTPQQVEGGQVVDTATLQSLLGQTPRPVLIDVYRRQWLQGRFIEDQPHSNLPGSLWLANTGDGELSPAWQDYFVRNLQKATAGHLDQPLVFYCRSDCWLSWNAVKRAKALGYNNLYWYRDGLDAWQQANLPLQPAQPVPFP | failed
MPRAPRCRAVRSLLRSHYREVLPLATFVRRLGPQGWRLVQRGDPAAFRALVAQCLVCVPWDARPPPAAPSFRQVSCLKELVARVLQRLCERGAKNVLAFGFALLDGARGGPPEAFTTSVRSYLPNTVTDALRGSGAWGLLLRRVGDDVLVHLLARCALFVLVAPSCAYQVCGPPLYQLGAATQARPPPHASGPRRRLGCE | failed
MPRITQEISYNCDYGDNTFNLAIDIGGTLAKVVFSPIHSNRLMFYTIETEKIDKFMELLHSIIKEHNNGCYRMTHIIATGGGAFKFYDLLYENFPQIKGISRFEEMEGLIHGLDFFIHEIPDEVFTYNDQDGERIIPTSSGTMDSKAIYPYLLVNIGSGVSILKVTEPNNFSRVGGSSLGGGTLWGLLSLITGAQTYDQMLDWAQEGDNSSVDMLVGDIYGTDYNKIGLKSSAIASSFGKVFQNRMTSNKSLENNENKLYSSHESIEKNNGQMFKNPDICKSLLFAISNNIGQIAYLQAKINNIQNIYFGGSYTRGHLTTMNTLSYAINFWSQGSKQAFFLKHEGYLGAMGAFLSASRHSSTKKTST | failed
MPRKQLKGETHDQKAQIASAFGEIEQSKIFLDKRSESAAVKMDIADLLKEIIQKQLRKDYDPEVESNIFINPERGDFEVYILKKIVKEVDLPTIEIGLDEVRQIDDSLELGDYYEEGPIKLDDYLTRKSIQIIKQSVQKKVRDLERLAVYEECLEKVGEVVAGEVYQVRPNEVIFTYNTSKDHRVELVLPKSEMMKKDNPRRTPRMKLYVKRIEREKVKVRNDDGTVEEREKPDGGMKVIVSRVDDRFLYKLFESEVPEILDGLIVIKGIARVPGERAKVAVESTSSRIDPVGATVGYRGKRIQSIVKELNNENIDVIYYTDEPQVFIARALQPAKIDPMTVHADMKTRKARVMLKPDQIKYAIGKNGNNIHLAEKLTGYEIDVYRDVIDKSLEDPNDIDIIEFREEFGDDMIYQLLDGGLDTAKKILKGGVEKIEEALLGTQKSEELFVFNKTRKPVKPKERRITDDEKRYWKKIAETIYRTVREQFNDEDLKALLDDSHERSLKGDGIDPEEIRDKETNLEHHHHHH | failed
MPRPLSHRNLPMTPQGHCDSRFAPLAEAFARLFDNPQERGAALCLEVGGETVVDLWGGVADKDGEQPWQRDTILNLFSCTKTFTAVAVLQLVAEGKLELDAPVAHYWPEFAAAGKAAISVRQLLCHRAGLPALREQMPPEALYDWQAMTTALAAEEPWWTPGEAHGYAPITYGWLLGEVIRRVDGREPGEAIVARTAAPLGLDFHVGLDDSQFGRVAHMARSKGSLGDAAAQRMLKTMMSEPLALTTRAFTNPPSILTSTNKPEWRRMQQPAANGHGNARALAGFYSGLLQGRLLEDELLGQLAHEHAVGEDRTLLTRTRFGLGTMLDQPGVANATYGLGPKAFGHPGAGGSIGFADPERDLAFSFVSNALGPYVLMDPRAQQLARVAGECL | failed
MPRSCDVVVVNYNAGLLLEDCVISVLAQDINRLVLVDNASHDGSLEQVATRFAADERLLILRNPSNTGFAAACNLGASHCEQPHILFLNPDTVLQPGALQGMIDALRHTHDLGMAGGLLCNFDGSEQPGGRRVFPTPRRAVVRALNLSGLAWLSPRLFSDFLLHREPLPSRPTQVEAISGACMLVKRKALDSVGGWDEGYFLHCEDLDLCMRFRQEGWKVCFVPQARIFHAWGACSRTRPVFVEWHKHRGMIRFYGKFFREDYPRVLSWSICAGVWLRFSFVVGYHWLAQLGRILGQPR | failed
MPRSTWFKALLLLVALWAPLSQAETGWQPIQETIRKSDKDNRQYQAIRLDNGMVVLLVSDPQAVKSLSALVVPVGSLEDPEAYQGLAHYLEHMSLMGSKKYPQADSLAEYLKMHGGSHNASTAPYRTAFYLEVENDALPGAVDRLADAIAEPLLDKKYAERERNAVNAELTMARTRDGMRMAQVSAETINPAHPGSKFSGGNLETLSDKPGNPVQQALKDFHEKYYSANLMKAVIYSNKPLPELAKMAADTFGRVPNKESKKPEITVPVVTDAQKGIIIHYVPALPRKVLRVEFRIDNNSAKFRSKTDELITYLIGNRSPGTLSDWLQKQGLVEGISANSDPIVNGNSGVLAISASLTDKGLANRDQVVAAIFSYLNLLREKGIDKQYFDELANVLDIDFRYPSITRDMDYVEWLADTMIRVPVEHTLDAVNIADRYDAKAVKERLAMMTPQNARIWYISPKEPHNKTAYFVDAPYQVDKISAQTFADWQKKAADIALSLPELNPYIPDDFSLIKSEKKYDHPELIVDESNLRVVYAPSRYFASEPKADVSLILRNPKAMDSARNQVMFALNDYLAGLALDQLSNQASVGGISFSTNANNGLMVNANGYTQRLPQLFQALLEGYFSYTATEDQLEQAKSWYNQMMDSAEKGKAFEQAIMPAQMLSQVPYFSRDERRKILPSITLKEVLAYRDALKSGARPEFMVIGNMTEAQATTLARDVQKQLGADGSEWCRNKDVVVDKKQSVIFEKAGNSTDSALAAVFVPTGYDEYTSSAYSSLLGQIVQPWFYNQLRTEEQLGYAVFAFPMSVGRQWGMGFLLQSNDKQPSFLWERYKAFFPTAEAKLRAMKPDEFAQIQQAVITQMLQAPQTLGEEASKLSKDFDRGNMRFDSRDKIVAQIKLLTPQKLADFFHQAVVEPQGMAILSQISGSQNGKAEYVHPEGWKVWENVSALQQTMPLMSEKNE | not failed
